This is an account of results in PMC10873206 (Nature Structural & Molecular Biology, 2024).

One experiment deals with T1, neddylated CUL1–RBX1 (human, UniProt Q13616 1-776; P62877 5-108; Q15843 1-76, NEDD8 covalently linked to a conserved cullin lysine (WHB domain) | C terminus covalently linked to the cullin lysine).
T1 construct: CUL1, human, wild type; RBX1, human, residues 5 to C terminus; NEDD8, human; purified as previously described; also called NEDD8–CUL1–RBX1; neddylated CRL1 core; source: High Five insect cells (baculovirus), co-expressed, purified (GST-sepharose, TEV cleavage, ion exchange, SEC); neddylated as previously described; not shown: GST, N-terminal, cleaved; copies: + +
As to the kind of experiment: cryo-EM structure; trapped chain formation complex: neddylated CUL1–RBX1, SKP1–FBXW7, K48C ubiquitin–cyclin E phosphopeptide, donor ubiquitin(1–75), UBE2R2; SEC-purified; 8.1 Å map, rigid-body fits. As to conditions: both partners purified.

In experiment [1] the target is T2, His-ubiquitin(1–75)–BmDPA (human, UniProt P0CG48 1-75, C terminus (residue 75) conjugated to (E)-3-[2-(bromomethyl)-1,3-dioxolan-2-yl]prop-2-en-1-amine (BmDPA), cross-linked to Cys48 of the acceptor ubiquitin and to the UBE2R2 active site cysteine).
T2 construct: ubiquitin, human, residues 1–75; also called UBD; donor ubiquitin
As to the kind of experiment: cryo-EM structure; trapped chain formation complex: neddylated CUL2–RBX1, Elongin B/C–VHL, PROTAC MZ1, K48C ubiquitin–BRD4 (352–460), donor ubiquitin(1–75), UBE2R2; SEC-purified; 7.5 Å map, rigid-body fits. The note with it: both partners purified.

T1 sequence (Q13616 whole entry, chain 1 of 3, the tested form may be a part): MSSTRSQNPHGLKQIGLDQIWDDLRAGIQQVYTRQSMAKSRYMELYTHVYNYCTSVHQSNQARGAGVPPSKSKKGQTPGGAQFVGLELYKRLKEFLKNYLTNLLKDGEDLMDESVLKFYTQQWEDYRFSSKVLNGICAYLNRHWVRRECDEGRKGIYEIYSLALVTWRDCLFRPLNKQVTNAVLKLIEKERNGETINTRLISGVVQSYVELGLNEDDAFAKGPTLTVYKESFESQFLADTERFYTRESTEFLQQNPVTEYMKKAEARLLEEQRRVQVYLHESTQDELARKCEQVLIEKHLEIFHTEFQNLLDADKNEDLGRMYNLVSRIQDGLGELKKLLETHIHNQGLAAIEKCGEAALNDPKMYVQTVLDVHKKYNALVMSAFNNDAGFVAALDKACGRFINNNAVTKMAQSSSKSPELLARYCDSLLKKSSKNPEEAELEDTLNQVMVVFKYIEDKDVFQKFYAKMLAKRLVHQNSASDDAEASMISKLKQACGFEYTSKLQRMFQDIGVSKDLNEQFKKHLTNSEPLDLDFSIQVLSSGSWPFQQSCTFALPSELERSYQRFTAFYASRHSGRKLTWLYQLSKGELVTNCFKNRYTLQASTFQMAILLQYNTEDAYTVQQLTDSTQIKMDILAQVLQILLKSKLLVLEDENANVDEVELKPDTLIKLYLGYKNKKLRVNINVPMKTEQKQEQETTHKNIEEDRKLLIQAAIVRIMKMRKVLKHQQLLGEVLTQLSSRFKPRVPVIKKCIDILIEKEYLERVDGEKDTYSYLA
T1 sequence (P62877 5-108, chain 2 of 3): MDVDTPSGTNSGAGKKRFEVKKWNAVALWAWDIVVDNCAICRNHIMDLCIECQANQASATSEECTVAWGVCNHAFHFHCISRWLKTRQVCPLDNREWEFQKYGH
T1 sequence (Q15843 1-76, chain 3 of 3): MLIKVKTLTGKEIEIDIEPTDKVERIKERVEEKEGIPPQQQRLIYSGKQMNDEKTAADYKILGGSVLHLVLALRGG

B1: UBE2R2 (enzyme, human, UniProt Q712K3 1-238, looked up)
chain: MAQQQMTSSQKALMLELKSLQEEPVEGFRITLVDESDLYNWEVAIFGPPNTLYEGGYFKAHIKFPIDYPYSPPTFRFLTKMWHPNIYENGDVCISILHPPVDDPQSGELPSERWNPTQNVRTILLSVISLLNEPNTFSPANVDASVMFRKWRDSKGKDKEYAEIIRKQVSATKAEAEKDGVKVPTTLAEYCIKTKVPSNDNSSDLLYDDLYDDDIDDEDEEEEDADCYDDDDSGNEES
notes: UBE2R2, human, wild type; In the trapped cryo-EM complexes the active site Cys93 is cross-linked to the BmDPA ligation mimic; in the di-ubiquitin synthesis assays it is thioesterified to 32P-labelled donor ubiquitin; also called WT (R2); UBE2R2 FL; source: E. coli Rosetta (DE3), purified (nickel-agarose or GST-sepharose, TEV, SEC); not shown: GST or 6xHis (either), N-terminal, cleaved
In the case of B1, the binding result (in the experiment with neddylated CUL1–RBX1; in experiment [1]) was “binds” in each case.
